Consider one substance from patent US20240166765A1, “INFLAMMATORY DISEASE TREATMENT USING ANTI-TISSUE FACTOR ANTIBODIES” (Iconic Therapeutics LLC, priority 2020, published 2024).

Assay [1] concerns the target h1-107_r (human/rat chimera). Description: live cell staining, flow cytometry.
Assay [2] addresses r141-194_h (rat/human chimera) (UniProt P42533). Description: live cell staining, flow cytometry.
Assay [3] addresses h1-107_r (human/rat chimera). In words: live cell staining, flow cytometry, HEK293 cells expressing the construct. A general note: Flow cytometry measures light scatter and fluorescence of single cells or particles in a stream.
In assay [4] the target is r141-194_h (rat/human chimera) (UniProt P42533). Described as above.

Sequence of h1-107_r (human/rat chimera) (chain, as listed by the source mutant limits assumed): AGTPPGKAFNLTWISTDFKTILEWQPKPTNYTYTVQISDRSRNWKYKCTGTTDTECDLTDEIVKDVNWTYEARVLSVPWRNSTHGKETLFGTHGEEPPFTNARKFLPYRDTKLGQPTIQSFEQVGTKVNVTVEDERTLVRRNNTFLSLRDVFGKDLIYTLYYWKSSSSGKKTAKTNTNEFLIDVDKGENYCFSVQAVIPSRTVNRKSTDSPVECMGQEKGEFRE

As for 5G9 (antibody), the values for the Percent antibody binding to TF construct relative to hTF in assay [1] and in assay [2] were 41% and 32%, respectively. Also, the Percentage antibody binding to TF construct relative to hTF in assay [3] and in assay [4] was less than 50% in each case.
